Measurements from paper doi:10.1101/2025.09.11.674065.

Target: His6-AstR (Acinetobacter baumannii ATCC 17978VU)
Test: SEC; size exclusion chromatography with standard curves; purified His6-AstR; Size Exclusion Buffer 50 mM Tris, 300 mM NaCl, pH 8

stoichiometry N: 2
Substance: His6-AstR (natural protein)
